Values belong to the binder of their own block, whether it stands above or below them.
How the values were obtained:
huLILRA1 = huLILRA1 (human, UniProt O75019 17-461, limits assumed); experiment: SPR (Biacore), antibody captured
huLILRA2 = huLILRA2 (human, UniProt Q8N149 24-449, limits assumed); experiment: SPR (Biacore), antibody captured
huLILRA5 = huLILRA5 (human, UniProt A6NI73 42-268, limits assumed); experiment: SPR (Biacore), antibody captured
[1] = target: T1, LILRB1 expressed on THP1 cells (human, UniProt Q8NHL6 24-650); experiment: flow cytometry competition with PE HLA-G tetramer on THP1-LILRB1 cells
T1 construct: whole, on cells; also called THP1 LILRB1 expressing cells; THP1-LILRB1 cells
T1 sequence (Q8NHL6 24-650): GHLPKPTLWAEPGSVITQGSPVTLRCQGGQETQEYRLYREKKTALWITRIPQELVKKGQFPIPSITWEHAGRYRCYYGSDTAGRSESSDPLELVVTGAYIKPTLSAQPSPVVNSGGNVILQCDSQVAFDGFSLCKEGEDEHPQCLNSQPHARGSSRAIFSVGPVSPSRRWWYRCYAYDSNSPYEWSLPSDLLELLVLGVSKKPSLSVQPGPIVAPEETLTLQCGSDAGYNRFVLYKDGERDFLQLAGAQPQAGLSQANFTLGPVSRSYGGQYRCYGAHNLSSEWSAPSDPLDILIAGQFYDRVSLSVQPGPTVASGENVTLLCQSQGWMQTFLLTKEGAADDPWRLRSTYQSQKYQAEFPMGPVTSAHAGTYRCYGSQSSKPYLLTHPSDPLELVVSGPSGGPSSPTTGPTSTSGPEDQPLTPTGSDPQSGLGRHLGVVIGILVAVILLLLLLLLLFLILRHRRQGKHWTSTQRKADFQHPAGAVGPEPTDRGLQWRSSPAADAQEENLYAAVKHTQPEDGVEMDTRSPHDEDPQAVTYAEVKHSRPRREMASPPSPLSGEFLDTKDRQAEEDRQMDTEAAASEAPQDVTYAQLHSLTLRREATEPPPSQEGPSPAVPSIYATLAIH
Protocol: (§1) LILRB1 or LILRB2 overexpressing THP1 cells were prepared in FACS buffer (0.5% BSA in PBS) and seeded in 100 μl/well (96 well plate) at 1λ10⁶ cells/ml concentration. The tested antibodies were serially diluted 3-fold into assay buffer starting from 200 nM. 40 μl of serial diluted antibody together with 40 μl of PE labelled HLA-G tetramer (FRED HUTCH IMT40509) at 2 ug/ml were added to each well and incubated on ice for 1 hour. The cells were washed 2 times with FACS buffer and resuspended in 50 μl/well FACS buffer containing 1:1000 dilution of LIVE/Dead fixable violet dead cell stain (Invitrogen #L34964), incubated on ice for 15 minutes. The cells were then washed with FACS buffer for 2 times and resuspended in 80 μl of Cytofix buffer (BD Cat #554655).

[2] = target: T1, LILRB1 expressed on THP1 cells; experiment: flow cytometry competition with PE HLA-G tetramer on THP1-LILRB1 cells (THP-B1)
Protocol: as §1

[3] = target: T2, human LILRB1 (huLILRB1), purified recombinant protein from R&D Systems (human, UniProt Q8NHL6 24-458, limits assumed); experiment: SPR (Biacore 8K, 37 C), antibody captured by anti-human Fc, huLILRB1 as analyte, 1:1 fit
T2 construct: Bought protein, used as the SPR analyte and as the ELISA coat; The catalog number 8429-T4 is printed once for 'human LILRB2 or LILRB1'
T2 sequence (Q8NHL6 24-458 limits assumed): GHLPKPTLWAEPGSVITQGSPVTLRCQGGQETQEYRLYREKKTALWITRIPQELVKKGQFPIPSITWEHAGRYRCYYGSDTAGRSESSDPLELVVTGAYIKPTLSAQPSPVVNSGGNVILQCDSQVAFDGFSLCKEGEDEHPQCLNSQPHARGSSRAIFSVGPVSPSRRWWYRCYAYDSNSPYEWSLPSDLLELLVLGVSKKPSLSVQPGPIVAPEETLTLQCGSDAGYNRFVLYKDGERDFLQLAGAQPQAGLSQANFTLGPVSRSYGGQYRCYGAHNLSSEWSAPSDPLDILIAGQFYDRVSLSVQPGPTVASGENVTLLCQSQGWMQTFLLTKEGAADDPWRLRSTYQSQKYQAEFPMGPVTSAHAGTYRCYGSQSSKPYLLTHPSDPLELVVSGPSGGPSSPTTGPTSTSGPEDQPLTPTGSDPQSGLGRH
Protocol: (§2) Biacore kinetic assays were conducted at 37° C. with a collection rate of 10 Hz using the Biacore 8K and 8K+ instruments (Cytiva). […] The final capture levels of the antibodies ranged from 20 resonance units (RU) to 60 RU. HBS-EP+pH 7.4 (10 mM HEPES pH 7.4, 150 mM NaCl, 3 mM EDTA, 0.05% Tween 20) was used as sample and running buffer. Flow cell 1 was used as a reference flow cell. Two-fold serial dilutions of human LILRB2 or LILRB1 (R&D Systems, Catalog number: 8429-T4) were prepared with concentrations from 45 nM to 1.667 nM for LILRB2; 405 nM to […] for LILRB1. Dilutions were prepared in duplicate and injected over all flow cells for 60 s at flow rate of 50 μl per minute. Dissociation was monitored for 600 s and the surface was regenerated with two 30 s injections of 3M MgCl₂ at flow rate of 50 μl per minute. The resulting data was double referenced (Myszka, D. G. Improving biosensor analysis. J. Mol. Recognit. 12:279-284; (1999). Rate constants and affinities were determined by fitting the sensorgram data to a Langmuir 1:1 model using Biacore Insight Evaluation software version 3.0.12 (Cytiva).

[4] = target: T3, LILRB2 expressed on THP1 cells (human, UniProt Q8N423 22-597); experiment: flow cytometry competition with PE HLA-G tetramer on THP1-LILRB2 cells (THPB2)
T3 construct: whole, on cells; also called THP1 LILRB2 expressing cells; THP1-LILRB2 cells
T3 sequence (Q8N423 22-597): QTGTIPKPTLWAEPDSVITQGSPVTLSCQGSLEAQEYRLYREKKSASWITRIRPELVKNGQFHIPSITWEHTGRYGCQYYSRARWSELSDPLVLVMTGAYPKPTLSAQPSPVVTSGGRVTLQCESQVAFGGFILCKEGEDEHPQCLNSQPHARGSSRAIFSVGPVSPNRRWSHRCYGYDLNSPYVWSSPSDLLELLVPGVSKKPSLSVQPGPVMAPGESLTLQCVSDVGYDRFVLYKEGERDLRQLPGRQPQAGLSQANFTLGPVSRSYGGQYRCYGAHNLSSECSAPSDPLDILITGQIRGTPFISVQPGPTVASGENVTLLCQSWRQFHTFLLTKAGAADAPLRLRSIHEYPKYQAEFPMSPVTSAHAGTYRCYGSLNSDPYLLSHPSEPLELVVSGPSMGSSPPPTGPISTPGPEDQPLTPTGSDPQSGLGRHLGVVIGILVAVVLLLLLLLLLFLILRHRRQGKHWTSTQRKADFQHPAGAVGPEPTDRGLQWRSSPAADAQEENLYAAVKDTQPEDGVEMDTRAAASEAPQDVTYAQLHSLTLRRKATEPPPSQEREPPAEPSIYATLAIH
Protocol: as §1

[5] = target: T4, human LILRB2 (huLILRB2), purified recombinant protein (human, UniProt Q8N423 22-458, limits assumed); experiment: SPR (Biacore 8K, 37 C), antibody captured by anti-human Fc, huLILRB2 as analyte, 1:1 fit
T4 construct: Bought protein, used as the SPR analyte and as the ELISA coat; also called huLILIB2
T4 sequence (Q8N423 22-458 limits assumed): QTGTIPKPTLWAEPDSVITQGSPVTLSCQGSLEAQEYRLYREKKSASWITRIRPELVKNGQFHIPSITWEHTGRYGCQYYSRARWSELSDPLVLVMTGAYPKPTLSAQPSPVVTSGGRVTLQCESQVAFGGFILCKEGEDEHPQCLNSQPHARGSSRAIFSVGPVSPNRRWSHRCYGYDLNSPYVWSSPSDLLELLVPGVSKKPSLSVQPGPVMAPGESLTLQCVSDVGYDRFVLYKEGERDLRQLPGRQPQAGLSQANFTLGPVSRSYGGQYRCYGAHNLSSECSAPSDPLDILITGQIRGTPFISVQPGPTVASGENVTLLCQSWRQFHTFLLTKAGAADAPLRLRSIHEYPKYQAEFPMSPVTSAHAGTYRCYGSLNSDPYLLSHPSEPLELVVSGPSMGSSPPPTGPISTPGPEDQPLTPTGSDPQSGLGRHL
Protocol: as §2

[6] = target: T3, LILRB2 expressed on THP1 cells; experiment: flow cytometry competition with PE HLA-G tetramer on THP1-LILRB2 cells; lower end of the printed range 1.7-6 nM
Protocol: as §1

[7] = target: T3, LILRB2 expressed on THP1 cells; experiment: flow cytometry competition with PE HLA-G tetramer on THP1-LILRB2 cells; upper end of the printed range 1.7-6 nM
Protocol: as §1

huLILRA2, sequence (Q8N149 24-449 limits assumed): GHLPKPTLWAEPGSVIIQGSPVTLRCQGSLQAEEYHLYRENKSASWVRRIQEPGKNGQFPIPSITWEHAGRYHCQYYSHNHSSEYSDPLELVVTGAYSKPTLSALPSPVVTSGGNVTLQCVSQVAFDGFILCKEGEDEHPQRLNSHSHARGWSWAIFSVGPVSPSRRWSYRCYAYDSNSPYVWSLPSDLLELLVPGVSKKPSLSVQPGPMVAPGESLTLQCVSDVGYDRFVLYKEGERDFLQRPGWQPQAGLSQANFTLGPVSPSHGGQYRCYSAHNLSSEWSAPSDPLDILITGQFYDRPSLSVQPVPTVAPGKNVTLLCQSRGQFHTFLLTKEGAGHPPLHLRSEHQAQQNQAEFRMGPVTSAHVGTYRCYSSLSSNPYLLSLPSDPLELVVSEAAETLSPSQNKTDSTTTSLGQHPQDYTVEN
huLILRA1, sequence (O75019 17-461 limits assumed): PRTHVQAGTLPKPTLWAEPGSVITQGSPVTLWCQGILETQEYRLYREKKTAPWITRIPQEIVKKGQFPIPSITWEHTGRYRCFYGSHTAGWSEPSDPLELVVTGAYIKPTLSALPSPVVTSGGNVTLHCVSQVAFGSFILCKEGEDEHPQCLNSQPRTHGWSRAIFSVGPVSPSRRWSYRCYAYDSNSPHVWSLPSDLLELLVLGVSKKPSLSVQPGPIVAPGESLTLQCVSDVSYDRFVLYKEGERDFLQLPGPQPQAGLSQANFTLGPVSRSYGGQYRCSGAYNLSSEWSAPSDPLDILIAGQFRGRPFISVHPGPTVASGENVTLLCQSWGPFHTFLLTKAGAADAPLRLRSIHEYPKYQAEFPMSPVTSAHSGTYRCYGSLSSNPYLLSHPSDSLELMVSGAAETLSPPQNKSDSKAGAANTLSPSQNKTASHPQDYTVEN
huLILRA5, sequence (A6NI73 42-268 limits assumed): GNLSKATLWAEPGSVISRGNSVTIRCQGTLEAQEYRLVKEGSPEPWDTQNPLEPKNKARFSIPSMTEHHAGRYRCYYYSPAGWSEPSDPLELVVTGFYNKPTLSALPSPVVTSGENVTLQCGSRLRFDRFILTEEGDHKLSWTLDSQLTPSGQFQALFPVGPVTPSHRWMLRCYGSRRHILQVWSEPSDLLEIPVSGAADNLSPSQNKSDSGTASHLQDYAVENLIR

binding result (huLILRA1): no binding
binding result (huLILRA2): no binding
binding result (huLILRA5): no binding
IC50 [1]: 1.5 nM
EC50 [2]: 2.69 nM
Kd [3]: 26 nM
koff [3]: 0.014 s⁻¹
kon [3]: 539000 M⁻¹ s⁻¹
t½ [3]: 0.825 min
B1: anti-LILRB1 antibody Ab-B1-1704 (antibody, human IgG1, lambda, V domains shown)
VH: EVQLVESGGGLVQPGGSLRLSCAASGFTFSSYAMHWVRQAPGKGLEWVAVISYDGSNKYYADSVKGRFTISRDNAKNSLYLQMNSLRAEDTAVYYCARDKGIGTSPLDYWGQGTLVTVSS
VL: SYELTQPPSVSVSPGQTASITCGGNNIGSKGVHWYQQKPGQSPVLVISYDSDRPSGIPERFSGSNSGNTATLTISGTQAMDEADYYCQVWDSSTRVFGTGTKVTVLG

binding result (huLILRA1): no binding
binding result (huLILRA2): no binding
binding result (huLILRA5): no binding
EC50 [4]: 3.43 nM
Kd [5]: 0.59 nM
koff [5]: 0.000276 s⁻¹
kon [5]: 810000 M⁻¹ s⁻¹
t½ [5]: 54.2 min
IC50 [6]: ≥ 1.7 nM
IC50 [7]: ≤ 6 nM
B2: anti-LILRB2 antibody Ab-B2-1825 (antibody, human IgG1, lambda, V domains shown)
VH: EVQLLESGGGLVQPGGSLRLSCAASGFTFSSYAMSWVRQAPGKGLEWVSAISGSGGSTYYADSVKGRFTISRDNSKNTLYLQMNSLRAEDTAVYYCWRWLNLGDAFDIWGQGTMVTVSS
VL: QSVLTQPPSASGTPGQRVTISCTGSSSNIGSNTVNWYQQLPGTAPKLLIYSDNQRPSGVPDRFSGSTSGTSASLAISGLRSEDEADYFCATWEDVLAGYVVFGGGTKLTVLG
